Laboratory results: patent KR20220012826A (dated 2022)
Where two headings read alike, the source gives them in different places.

What was measured:
[1] = molecular target: T1, SARS-CoV-2 spike D614, on pseudovirus (SARS-CoV-2, UniProt P0DTC2 14-1273); assay: cell-based or functional assay
[2] = molecular target: T1, SARS-CoV-2 spike D614, on pseudovirus; assay: cell-based or functional assay; remark: listed apart in the source
MERS-CoV RBD = molecular target: T2, MERS-CoV RBD (MERS-CoV, UniProt K9N5Q8 367-606); assay: Octet (BLI) specificity, Fig. 12
T2 sequence: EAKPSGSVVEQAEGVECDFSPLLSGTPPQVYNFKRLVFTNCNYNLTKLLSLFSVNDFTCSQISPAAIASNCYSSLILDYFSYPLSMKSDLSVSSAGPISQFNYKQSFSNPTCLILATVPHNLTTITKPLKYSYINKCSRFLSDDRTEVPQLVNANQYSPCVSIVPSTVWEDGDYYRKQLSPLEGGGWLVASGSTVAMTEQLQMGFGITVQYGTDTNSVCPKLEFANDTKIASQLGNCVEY

SARS-CoV S1 = SARS-CoV S1 (SARS-CoV, UniProt P59594 14-667); assay: Octet (BLI) specificity, Fig. 12
[3] = molecular target: T1, SARS-CoV-2 spike D614, on pseudovirus; assay: cell-based or functional assay; remark: listed apart in the source

B1: No. 139 항체 (Full IgG) (antibody, V domains shown)
VH: QITLKESGPTLVKPTQTLTLTCSFSGFSLSTSGVGVGWIRQPPGKALEWLALIDWDDNKYHTTSLKTRLTISKDTSKNQVVLTMTNMDPVDTATYYCARIPGFLRYRNRYYYYGMDVWGQGTTVTVSS
VL: ELVLTQPPSVSAAPGQKVTISCSGSSSNIGNNYVSWYQQLPGTAPKLLIYDNNKRPSGIPDRFSGSKSGTSATLGITGLQTGDEADYYCGTWDSSLSAGVFGGGTELTVL
notes: also called CT-P59; Regdanvimab
For B1, the “pseudovirus 중화능 IC50” value [1] was 0.535 ng/mL, the “pseudovirus 중화능 IC50” value [2] was 0.378 ng/mL and the binding result (MERS-CoV RBD) was “no binding”. For the same binder, the binding result (SARS-CoV S1) was “no binding” and the “pseudovirus 중화능 IC50” value [3] was 0.35 ng/mL.
